Measurements reported in US20240279618A1, “RECEPTOR TYROSINE KINASE AGONIST, COMPOSITION FOR CELL CULTURE MEDIUM, AND […] MAINTENANCE COMPOSITION” (SEKISUI CHEMICAL CO., LTD., priority 2021, published 2024).

B1: VHH Clone #1: alpaca-derived VHH single-domain antibody (monomer) binding FGFR1, amino acid sequence SEQ ID NO: 17 (protein)
VHH: QLQLVESGGGSVQAGGSLRLSCAASRSLSRFNVWTWYRQAPVKQRELVASITKSGDTNYAESVKGRFIISRDDDKNTVYLQMNNLKSEDTGIYYCAGSYYSGSYLYPSPGGFSVWGQGTQVTVSS
modifications: VHH_Clone_#1
B2: #1-L4-#1: dimer of VHH #1 with linker L4 (GSEGKSSGSGSESKST), SEQ ID NO: 23 (protein)
VHH: QLQLVESGGGSVQAGGSLRLSCAASRSLSRFNVWTWYRQAPVKQRELVASITKSGDTNYAESVKGRFIISRDDDKNTVYLQMNNLKSEDTGIYYCAGSYYSGSYLYPSPGGFSVWGQGTQVTVSSGSEGKSSGSGSESKSTQLQLVESGGGSVQAGGSLRLSCAASRSLSRFNVWTWYRQAPVKQRELVASITKSGDTNYAESVKGRFIISRDDDKNTVYLQMNNLKSEDTGIYYCAGSYYSGSYLYPSPGGFSVWGQGTQVTVSS
modifications: #1-L4-#1

What was measured:
[1] = test system: human bone marrow-derived MSC; assay: MSC culture: evaluation of cell growth and morphology; format: cell-based; set-up: key to P3 Growth rate / P4 Growth rate / P5 Growth rate: cells per well at passage divided by cells at seeding; conditions: for P2 Count (3-well) / P2 Growth rate / P3 Count (3-well) / P3 Growth rate / P4 Count (3-well) / P4 Growth rate / P5 Count (3-well) / P5 Growth rate / cumulative number of cells (average value), P1 / cumulative number of cells (average value), P2 / cumulative number of cells (average value), P3 / cumulative number of cells (average value), P4 / cumulative number of cells (average value), P5 / P1 Count (2-well): MSC, 20 ng/mL; for cumulative number of cells (average value), P1: culture day 5; for cumulative number of cells (average value), P2: culture day 10; for cumulative number of cells (average value), P3: culture day 15; for cumulative number of cells (average value), P4: culture day 20; for cumulative number of cells (average value), P5: culture day 25; for growth performance of MSC (cumulative number of cells): regardless of the FBS concentration (10% or 20%); for morphology of MSC: 4 passages, Day 1
Method: 10 mL of a used portion of D-MEM medium (Low Glucose, Glutamine) (Fujifilm Wako Pure Chemical Corporation, C/N: 041-29775) was added to a 15 mL PP tube, and warmed in a thermostatic water tank (set at 37° C.). A human bone marrow-derived MSC (Stemcell Technologies, C/N: 70022) stock tube preserved in a liquid nitrogen gas phase was taken out from a liquid nitrogen container and thawed in a thermostatic water tank (set at 37° C.). Thereafter, the cells were rapidly moved with a pipette into the tube (including 10 mL of the medium) that had been heated to 37° C. in a clean bench, and mixed by pipetting. The tube was centrifuged (300× g, 5 minutes) and the supernatant was removed with an aspirator.
An appropriate amount of D-MEM that had been warmed to room temperature was added to a cell pellet and mixed, and then the number of cells was evaluated with a cell counter. An appropriate amount of the cell suspension was taken into a 15 mL PP tube and centrifuged (300× g, 5 minutes). The supernatant was removed, an appropriate amount of D-MEM (containing 10% or 20% of FBS (Thermo Fisher Scientific Inc., 16140071); the stock was preserved under refrigeration and used within 2 weeks) was added to a cell pellet to adjust a cell suspension (1).
The number of cells was evaluated again with a cell counter and the cells were appropriately diluted with each of the media. Next, a stock of basic FGF or VHH was added to the cell suspension (1), so that each of the final concentrations was 1 ng/ml or ng/mL. Seeding was performed onto a CellBIND 6-well plate (Coming, C/N: 3335) at a density of 3-5×10^4/well, and after 2 to 4 days, medium exchange was performed using D-MEM (containing 10% FBS or 20% FBS).
The cells were observed under a microscope, and basically, passage was carried out after 5 days from seeding. In advance, the used D-MEM (0% FBS, 10% FBS, or 20% FBS) was warmed in advance in a thermostatic water tank (set at 37° C.). After washing the cells with D-PBS, 500 μL of TrypLE Express was added thereto and the cells were left to stand in a CO2 incubator. After 5 to 10 minutes, the culture container was removed from the CO2 incubator, and a change in cell morphology was confirmed under a microscope. Thereafter, 1 mL of D-MEM was added to each well, and the cells were released by pipetting, suspended, and then recovered in a 15 mL PP tube.
The tube was centrifuged (300× g, 5 minutes) and the supernatant was removed with an aspirator. An appropriate amount of a D-MEM medium (containing 10% FBS or 20% FBS) was added to the cell pellet, and mixed by pipetting. A part of the cell suspension was collected and the number of cells was evaluated with a cell counter. After counting the […] in each well, the cell suspensions in the same group were collected in one tube and mixed together. The average value of individual wells was used to calculate the number of cells at the time of passage.
The cell suspension was appropriately diluted with D-MEM (10% FBS or 20% FBS). The cells were seeded on a new CellBIND 6-well plate at […] cells/well. Furthermore, one well was adjusted to 2 mL/well. After 2 to 4 days, medium exchange was performed with a medium at room temperature.
The average value of the counts of number of cells per well acquired during the passage was used to create a cell growth straight line. In addition, a value obtained by dividing the number of cells per well at the time of passage by the number of cells at the time of seeding was defined as a growth rate during that period, and the rate was used at the time of calculating a cumulative number of cells. In a case in which the number of cells per well at the time of initial seeding is defined as P(0) and the time of the N^th passage is defined as P(N), the cumulative number of cells at each passage is determined by the following calculation equation. […]

[2] = Thermal stability by protein thermal shift assay (SYPRO Orange); format: physicochemical; conditions: 0.5 mg/mL in D-PBS, 25° C. to 95° C., 1° C./min
Method: The Td is evaluated by a Td value at the time of raising the temperature from 25° C. to 95° C. (temperature rising rate: 1° C./min) under the solution conditions of a protein concentration (0.5 mg/mL) in a D-PBS solution (including 0.2 g of KH2PO4, 1.15 g of Na2HPO4, 0.2 g of KCl, and 8 g of NaCl per liter of the aqueous solution, pH 7.4).
The thermal stability of VHH was measured by a protein thermal shift assay method.
In order to confirm the thermal stability of the VHH monomer Clone #1 and the tandem dimer #1L4, the denaturation temperature (Td) was measured by a protein thermal shift assay method. […] In addition, in order to measure the fluorescence background, a control including no protein was also prepared at the same time, and dispensed into an 8-strip PCR tube (manufactured by Nippon Genetics Co., Ltd.). This tube was set in a real-time PCR measuring device, QuantStudio 3 (manufactured by Thermo Fisher Scientific, Inc.), and a change in fluorescence intensity in a range of 25° C. to 95° C. was measured under the condition of 1° C./min using a fluorescence filter for ROX measurement. After the measurement, Td was calculated using the value obtained by subtracting the background value from the measured value.

[3] = FBS 10%, cells at passage divided by cells at seeding
[4] = FBS 10%, number of cells (average value) at passage P1

| Molecule | P2 Count (3-well) ([1]; FBS 10%) | P2 Growth rate [1, 3] | P3 Count (3-well) ([1]; FBS 10%) | P3 Growth rate ([1]; FBS 10%) | P4 Count (3-well) ([1]; FBS 10%) | P4 Growth rate ([1]; FBS 10%) | P5 Count (3-well) ([1]; FBS 10%) | P5 Growth rate ([1]; FBS 10%) | cumulative number of cells (average value), P1 ([1]; FBS 10%) | cumulative number of cells (average value), P2 ([1]; FBS 10%) | cumulative number of cells (average value), P3 ([1]; FBS 10%) | cumulative number of cells (average value), P4 ([1]; FBS 10%) | cumulative number of cells (average value), P5 ([1]; FBS 10%) | P1 Count (2-well) [1, 4] | P1 Count (2-well) ([1]; FBS 20%, P1) | P2 Count (3-well) ([1]; FBS 20%) | P2 Growth rate ([1]; FBS 20%) | P3 Count (3-well) ([1]; FBS 20%) | P3 Growth rate ([1]; FBS 20%) | P4 Count (3-well) ([1]; FBS 20%) | other results |
| --- | --- | --- | --- | --- | --- | --- | --- | --- | --- | --- | --- | --- | --- | --- | --- | --- | --- | --- | --- | --- | --- |
| FGF2: fibroblast growth factor (basic), human, recombinant (154aa), positive control; SEQ ID NO: 58 [reference compound] | 3.6E+05 | 7.2 | 3.5E+05 | 7.0 | 3.0E+05 | 6.0 | 2.0E+05 | 3.9 | 6.8E+05 | 4.9E+06 | 3.4E+07 | 2.1E+08 | 8.1E+08 | 6.8E+05 | 1.2E+06 | 5.3E+05 | 10.7 | 6.6E+05 | 13.2 | 5.5E+05 | P4 Growth rate ([1]; FBS 20%): 10.9; P5 Count (3-well) ([1]; FBS 20%): 3.6E+05; P5 Growth rate ([1]; FBS 20%): 7.2; cumulative number of cells (average value), P1 ([1]; FBS 20%): 1.2E+06; cumulative number of cells (average value), P2 ([1]; FBS 20%): 1.3E+07; cumulative number of cells (average value), P3 ([1]; FBS 20%): 1.7E+08; cumulative number of cells (average value), P4 ([1]; FBS 20%): 1.8E+09; cumulative number of cells (average value), P5 ([1]; FBS 20%): 1.3E+10; growth performance of MSC (cumulative number of cells) [1]: almost the same growth performance |
| B1 |  |  |  |  |  |  |  |  |  |  |  |  |  |  |  |  |  |  |  |  | denaturation temperature (Td) [2]: 74.1 °C |
| B2 | 4.3E+05 | 8.5 | 3.7E+05 | 7.5 | 2.9E+05 | 5.8 | 2.2E+05 | 4.3 | 6.3E+05 | 5.4E+06 | 4.0E+07 | 2.3E+08 | 1.0E+09 | 6.3E+05 | 1.3E+06 | 8.4E+05 | 16.7 | 6.9E+05 | 13.7 | 4.9E+05 | denaturation temperature (Td) [2]: 75.4 °C; morphology of MSC ([1]; 10% FBS, low concentration (1 ng/mL)): flattened morphology; morphology of MSC ([1]; 20% FBS): same morphology was exhibited regardless of the addition concentration; P4 Growth rate ([1]; FBS 20%): 9.7; P5 Count (3-well) ([1]; FBS 20%): 4.3E+05; P5 Growth rate ([1]; FBS 20%): 8.7; cumulative number of cells (average value), P1 ([1]; FBS 20%): 1.3E+06; cumulative number of cells (average value), P2 ([1]; FBS 20%): 2.1E+07; cumulative number of cells (average value), P3 ([1]; FBS 20%): 2.9E+08; cumulative number of cells (average value), P4 ([1]; FBS 20%): 2.8E+09; cumulative number of cells (average value), P5 ([1]; FBS 20%): 2.4E+10; growth performance of MSC (cumulative number of cells) [1]: almost the same growth performance |
